Assay results taken from US20110059015A1, “VACCINE” (priority 2002, published 2011).

Key:
[1] = tested on: HIV-1 MN strain; test: Neutralisation plaque assay (NPA) in MT-4 cells; type: cell-based
Description: A neutralisation plaque assay (NPA) was established in MT-4 cells (Harada, et al., 1985) with minor modifications (Sánchez, et al., 1993). Six-well plates (Costar, Calif.) were incubated with 1 ml of poly-L-lysine (50 μg/ml, Sigma) for 60 min at room temperature and washed three times in phosphate-buffered saline (PBS, pH 7). MT-4 cells (4×10^6/well) were added and incubated 2 h, after which unbound cells were removed. Neutralisation was performed with 100 plaque-forming units (pfu) of virus and five purified Fabs (S20, S19, S8, M02 and M025) at different concentrations. The virus-antibody mixture was incubated (37° C., 3 h), slowly added to the plates and adsorbed (37° C., 90 min), after which virus was removed and 2 ml of agarose medium (0.2% SeaPlaque agarose in complete RPMI medium) were added. Plates were incubated (37° C., 5% CO2 atmosphere), and 2 ml of agarose medium were added on day 3. Plaque production was counted with the naked eye on day 7. Neutralisation titer was calculated according to the formula % neutralisation=(1−p/n)×100, where p is the amount of virus produced in presence of the corresponding Fab, n is the mean amount of virus produced without Fab, measured by number of plaques in cultures.

[2] = tested on: HIV-1 SF-2; test: Infectivity reduction assay (IRA) in MT-2 cells, SF-2; type: cell-based; settings: Fab 10 μg/ml, SF-2, MT-2 cells
Description: (§1) The infectivity reduction assay (IRA) was performed using in MT-2 cells. Virus titer of LAI, SF-2, MN and RF strains was determined in MT-2 cells and expressed as TCID50 (50% tissue culture infective doses), calculated by the Spearman-Karber formula. Five 10-fold virus dilutions were mixed with different concentrations of Fabs S20, S19, S8, M02 and M025 and incubated (37° C., 1 h, 5% CO2), then added to a 96-well microtiter plate containing 10^5 MT-2 cells/well. Fresh medium (100 μl) was added 4 days later. Cytopathic effect (CPE), characterised by the appearance of giant multinuclear cells, was quantified on day 7. Six replicate wells were made for each dilution. Neutralisation was calculated by the formula % neutralisation=(1−p/n)×100, where p is the mean titer in TCID50/ml of virus produced in cultures incubated with the correspondent mixture and n is the mean titer of virus produced in cultures incubated without Fabs. Each titer point is the mean of two individual experiments.

[3] = tested on: HIV-1 MN; test: Infectivity reduction assay (IRA) in MT-2 cells, MN; type: cell-based; settings: Fab 10 μg/ml
Description: as §1

[4] = tested on: HIV-1 RF; test: Infectivity reduction assay (IRA) in MT-2 cells, RF; type: cell-based; settings: Fab 10 μg/ml
Description: as §1

[5] = tested on: HIV-1 LAI strain; test: Infectivity reduction assay (IRA) in MT-2 cells, LAI; type: cell-based; settings: Fab 10 μg/ml
Description: as §1

[6] = tested on: donor virus isolate (LTNP HIV-1); test: IRA in PBMC with donor virus isolate; type: cell-based; settings: Fab 25 μg/ml
Description: PBMC obtained from the patient in 1996 were cocultured with HIV-1-seronegative PBMC which had been stimulated for 3 days with phytohemagglutinin (PHA). Coculture was maintained in medium with interleukin-2 (IL-2) for at least 40 days (37° C., 5% CO2). Fresh PBMC were added each week and p24 antigen production was monitored every 7 days. Supernatant was harvested and characterised by TCID50% on stimulated PBMC. Supernatant (1 ml) from the coculture (1.3×10^3 TCID50%) was inoculated in 10×10^6 PBMC. After incubation (1 h, 37° C.), cells were centrifugated and 10 ml of RPMI with […] were added. Virus was grown and harvested. This first-passage virus stock was used to perform the IRA in PBMC. […] Medium with IL-2 was changed twice a week. After 14 days, the p24 assay was performed and TCID50% calculated. Neutralisation titer was calculated according to the formula given above.

[7] = tested on: HIV-1 X4 (NL4-3); test: p24 quantification after PBMC infection, X4 strain; type: cell-based; settings: NL4-3, PBMC, p24 on day 7
Description: (§2) Excess virus and Fab were removed by washing, and PBMC incubated in complete RPMI 1640 at 37° C. Every two days after infection, half the culture supernatant (500 μl) was removed and replaced with fresh medium containing rhIL-2 and Fabs at the above concentration. Cell-free supernatants were tested for HIV-1 p24 antigen on day 7 using a commercial ELISA test (Coulter, Miami, Fla.). The percentage of neutralisation was calculated as the ratio between p24 levels for test samples a lone or with Fabs. Irrelevant HmFab P1 (10 μg/ml) was used as a negative control.

[8] = tested on: HIV-1 R5 (Bal); test: p24 quantification after PBMC infection, R5 strain; type: cell-based; settings: p24 on day 7
Description: as §2

[9] = tested on: HIV-1 Bal; test: In vivo neutralisation of HIV-1 Bal infection in SCID-hu-PBMC mice; settings: Fab 100 μg i.p. x3
Text: (A) Neutralisation of the HIV-1 MN strain by IgM Fabs M02 and M025 and IgG Fabs S8, S19 and S20 determined by plaque assay (NPA) in MT-4 cells. […] SCID mice grafted with adult human PBMC (SCID-hu-PBMC) sensitive to HIV-1 infection were infected 2 weeks after reconstitution with cell-free HIV-1 Bal stocks containing 100 TCID50. […] Peritoneal cells were recovered after 15 days and co-cultured with PHA-activated PBMC from HIV-1-seronegative individuals. Co-cultures were monitored in ELISA for HIV-1 core antigen in supernatant at days 7 (left) and 14 (right), and were considered positive when p24 was >30 ng/ml.
CB.17 SCID/SCID mice were bred and maintained under specific pathogen-free conditions in the Centro Nacional de Biotecnologia animal facility. Eight- to 10-week-old non-leaky phenotype mice were reconstituted by i.p. injection of 20×10^6 freshly isolated normal human PBMC. […] Mice were infected 2 weeks after PBMC reconstitution by i.p. injection of 0.5 ml of diluted cell-free HIV-1 Bal stocks containing 100 TCID50. Two weeks after viral challenge, mice were killed by cervical dislocation and peritoneal cells obtained by washing with ice cold PBS. […] Co-cultures were monitored by ELISA for HIV-1 core antigen in supernatant on days 7 and 14, and were considered positive when p24 was >30 ng/ml.

[10] = target: gp120 III-B (Human immunodeficiency virus type 1 group M subtype B, UniProt P04578); settings: donor serum 1/200, Fab 0.01-30 μg/ml

B1: Fab S8: human IgG1 anti-gp120 Fab from LTNP donor; light chain SEQ ID 2, heavy chain SEQ ID 4 (antibody, listed as Homo sapiens)
heavy: LESGGGLVKPGGSLRLSCAASGFTFSSYAMHWVRQAPGKGLEWVAFIWFDGSNERYADSVKGRFTITRDNPKNTLYLQMNSLRVEDTAVYYCVRRGGSILTGFHLDYWGQGTLVTVSSASTKGPSVFPLAPSSKSTSGGTAALGCLVKDYFPEPVTVSWNSGALTSGVHTFPAVLQSSGLYSLSSVVTVPSSSLGTQTYICNVNHKPSNTKVDKRVEPKSCDKTS
light: ELTQSPSSLSASVGDRVTITCRASQGIRDDLGWYQQKPGKAPKRLIYAASNLQSGVPSRFSGGGSGTEFTLTISSLQPEDFATYYCLQHNSYPLTFGGGTKVEIKRTVAAPSVFIFPPSDEQLKSGTASVVCLLNNFYPREAKVQWKVDNALQSGNSQESVTEQDSKDSTYSLSSTLTLSKADYEKHKVYACEVTHQGLSSPVTKSFNKGKVLIL
modifications: S8 Heavy chain; Light chain
% neutralisation ([1]; Fab 10 μg/ml): 100% | % neutralisation [2]: greater than 90% | % neutralisation [3]: greater than 90% | % neutralisation [4]: greater than 90% | neutralisation [5]: poorly neutralised | % neutralisation [6]: 32% | Fab concentration for 50% neutralisation [7]: less than 0.1 μg/ml | Fab concentration for 50% neutralisation [8]: less than 0.1 μg/ml | Fab-treated mice with undetectable p24 ([9]; co-culture day 7, 100 TCID50 HIV-1 Bal): 100% | Fab-treated mice with undetectable p24 ([9]; co-culture day 14, 100 TCID50 HIV-1 Bal): seven of eight | inhibition of gp120 binding of donor serum IgG [10]: inhibited

B2: Fab S20: human IgG1 anti-gp120 Fab; light chain SEQ ID 2, heavy chain SEQ ID 8 (antibody, listed as Homo sapiens)
heavy: LESGGGVVQPGRSLRLSCSASGFSFRDYAMHWVRQAPGKGLEWVAFIWFDGSNERYADSVKGRFTITRDNPKNTLYLQMNSLRVEDTAVYYCVRRGGSILTGFHLDYWGQGTLVTVSSASTKGPSVFPLAPSSKSTSGGTAALGCLVKDYFPEPVTVSWNSGALTSGVHTFPAVLQSSGLYSLSSVVTVPSSSLGTQTYICNVNHKPSNTKVDKRVEPKSCDKTS
light: ELTQSPSSLSASVGDRVTITCRASQGIRDDLGWYQQKPGKAPKRLIYAASNLQSGVPSRFSGGGSGTEFTLTISSLQPEDFATYYCLQHNSYPLTFGGGTKVEIKRTVAAPSVFIFPPSDEQLKSGTASVVCLLNNFYPREAKVQWKVDNALQSGNSQESVTEQDSKDSTYSLSSTLTLSKADYEKHKVYACEVTHQGLSSPVTKSFNKGKVLIL
modifications: S20 Heavy chain; Light chain
% neutralisation ([1]; Fab 1 μg/ml): 100%

B3: Fab S19: human IgG1 anti-gp120 Fab; light chain SEQ ID 2, heavy chain SEQ ID 6 (antibody, listed as Homo sapiens)
heavy: LESGGGVVQPGRSLRLSCAASGFSFSSHGMHWVRQAPGKGLEWVAFIWFDGSNERYADSVKGRFTITRDNPKNTLYLQMNSLRVEDTAVYYCVRRGGSILTGFHLDYWGQGTLVTVSSASTKGPSVFPLAPSSKSTSGGTAALGCLVKDYFPEPVTVSWNSGALTSGVHTFPAVLQSSGLYSLSSVVTVPSSSLGTQTYICNVNHKPSNTKVDKRVEPKSCDKTS
light: ELTQSPSSLSASVGDRVTITCRASQGIRDDLGWYQQKPGKAPKRLIYAASNLQSGVPSRFSGGGSGTEFTLTISSLQPEDFATYYCLQHNSYPLTFGGGTKVEIKRTVAAPSVFIFPPSDEQLKSGTASVVCLLNNFYPREAKVQWKVDNALQSGNSQESVTEQDSKDSTYSLSSTLTLSKADYEKHKVYACEVTHQGLSSPVTKSFNKGKVLIL
modifications: S19 Heavy chain; Light chain
% neutralisation ([1]; Fab 20 μg/ml): 92%
